The assay concerns the target His-L1ICD, non-phosphorylated (intracellular domain of L1) (mouse, UniProt P11627 1144-1260). In words: cell-based or functional assay.

Sequence of His-L1ICD, non-phosphorylated (intracellular domain of L1) (P11627 1144-1260): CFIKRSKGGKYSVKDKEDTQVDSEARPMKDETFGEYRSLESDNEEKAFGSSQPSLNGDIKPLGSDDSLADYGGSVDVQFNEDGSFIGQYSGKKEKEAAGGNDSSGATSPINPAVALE

B1: GST-14-3-3ζ (natural protein, UniProt P63104 1-245, looked up)
chain: MDKNELVQKAKLAEQAERYDDMAACMKSVTEQGAELSNEERNLLSVAYKNVVGARRSSWRVVSSIEQKTEGAEKKQQMAREYREKIETELRDICNDVLSLLEKFLIPNASQAESKVFYLKMKGDYYRYLAEVAAGDDKKGIVDQSQQAYQEAFEISKKEMQPTHPIRLGLALNFSVFYYEILNSPEKACSLAKTAFDEAIAELDTLSEESYKDSTLIMQLLRDNLTLWTSDTQGDEAEAGEGGEN
Take B1: the “phosphorylation of L1ICD by CKII in vitro (densitometry of the phospho-L1ICD band, 0 to 180 min) after preincubation with GST-14-3-3ζ against GST alone” value is ~3 fold.

Source of the values: paper PMC2956685, “The 14-3-3ζ Protein Binds to the Cell Adhesion Molecule L1, Promotes L1 Phosphorylation by CKII and Influences L1-Dependent Neurite Outgrowth” (PLoS ONE, 2010).
